Assay results taken from patent US20150343088A1 (KAGOSHIMA UNIVERSITY, published 2015).

Target: T1, human folate receptor β (human, UniProt P14207 17-230)
T1 construct: whole, on cells; also called FRβ; FR-β
Assay: flow cytometry on human FRβ-expressing B300-19 cells
Method: The cells were further reacted with an anti-rat antibody labeled with APC. After the end of reaction, stainability was determined using a flow cytometer.

T1 sequence (P14207 17-230): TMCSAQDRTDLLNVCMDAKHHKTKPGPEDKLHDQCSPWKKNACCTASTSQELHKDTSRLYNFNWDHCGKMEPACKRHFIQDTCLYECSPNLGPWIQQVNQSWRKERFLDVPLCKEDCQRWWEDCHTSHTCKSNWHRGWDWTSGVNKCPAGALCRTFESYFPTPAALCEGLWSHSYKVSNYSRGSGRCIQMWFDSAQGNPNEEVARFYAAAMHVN

B1: anti-human FRα/β rat monoclonal antibody (clone name: No. 5) (antibody, V domains shown)
VH: QVQLKESGPGLVQPSQTLSLTCTVSGFSLTSNSVSWVRQPPGKGLEWMGAIWSGGSTDYNSALKSRLSISKDTSKSQVFLKMNSLQTEDTAIYFCTRYYGYTYFAYWGQGVMVTVSS
VL: DIQMTQSPASLSASLEEIVTITCQASQDIGNWLAWYQQKPGKSPQLLIYDAIRLADGVPSRFSGSRSGTQYSLKISRLQVEDIGDYYCQQGQSNPRTFGGGTKLELK
notes: also called antibody No. 5; anti-human FRα/β antibody
Question: Does B1 bind?
Answer: binds
